Laboratory results taken from patent US20190083615A1.

Biological target: cynomolgous monkey LAG3 expressed on cells (cynomolgous monkey)
Assay: cell based KinExA, BaF/3 cells transfected with cynomolgus LAG3 (n=2)

Sequence of cynomolgous monkey LAG3 expressed on cells (cynomolgous monkey) (P18627 other isoform, or with tags, fused parts or gaps limits assumed): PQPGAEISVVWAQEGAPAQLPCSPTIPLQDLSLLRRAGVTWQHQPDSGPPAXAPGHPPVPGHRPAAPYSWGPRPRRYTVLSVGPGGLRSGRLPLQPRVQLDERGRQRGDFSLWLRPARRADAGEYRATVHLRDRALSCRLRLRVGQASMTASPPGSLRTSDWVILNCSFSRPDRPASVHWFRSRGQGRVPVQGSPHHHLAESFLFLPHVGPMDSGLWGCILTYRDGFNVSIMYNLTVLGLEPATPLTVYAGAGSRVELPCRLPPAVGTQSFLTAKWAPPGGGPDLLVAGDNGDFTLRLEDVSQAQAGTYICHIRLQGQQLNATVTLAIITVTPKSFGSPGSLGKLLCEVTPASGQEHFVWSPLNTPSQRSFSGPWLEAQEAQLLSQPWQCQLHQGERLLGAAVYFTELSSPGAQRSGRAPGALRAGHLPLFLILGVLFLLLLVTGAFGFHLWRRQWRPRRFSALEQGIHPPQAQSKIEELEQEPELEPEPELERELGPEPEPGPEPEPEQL

Kd: 0.011 nM
B1: 22D2 chimera: chimeric antibody [LAG3_H] mAb (LB145.22D2.E1.D1 (VH0/VL0) Geneart) IgG4 S228P/kappa (PX) (antibody, V domains shown)
VH: EVLLLQSGPELVKPGTSVKIPCKASGYTFTDYNVDWVKQRHGKGLEWIGDINPNNGGTIYSQKFKGKATLTVDKSSSTAFMELRSLTSEDTAVYFCARNYRWFGAMDHWGQGTSVTVSS
VL: DIVLTQSPASLAVSPGQRATISCKASQSLDYEGDSDMNWYQQKPGQPPRLLISGASNLESGIPARFSGSGSGTDFTVNIHPVEEEDAATYYCQQSTEDPRTFGGGTKLEIK
